{"source": "paper PMC6293271", "about": "“Bactericidal/Permeability-Increasing Protein Is an Enhancer of Bacterial Lipoprotein Recognition” (Frontiers in Immunology, 2018)", "molecules": {"B1": {"name": "rBPI: recombinant human BPI (aa 32-487) with C-terminal FLAG Tag expressed in HEK293T cells (protein)", "chain": "VNPGVVVRISQKGLDYASQQGTAALQKELKRIKIPDYSDSFKIKHLGKGHYSFYSMDIREFQLPSSQISMVPNVGLKFSISNANIKISGKWKAQKRFLKMSGNFDLSIEGMSISADLKLGSNPTSGKPTITCSSCSSHINSVHVHISKSKVGWLIQLFHKKIESALRNKMNSQVCEKVTNSVSSELQPYFQTLPVMTKIDSVAGINYGLVAPPATTAETLDVQMKGEFYSENHHNPPPFAPPVMEFPAAHDRMVYLGLSDYFFNTAGLVYQEAGVLKMTLRDDMIPKESKFRLTTKFFGTFLPEVAKKFPNMKIQIHVSASTPPHLSVQPTGLTFYPAVDVQAFAVLPNSSLASLFLIGMHTTGSMEVSAESNRLVGELKLDRLLLELKHSNIGPFPVELLQDIMNYIVPILVLPRVNEKLQKGFPLPTPARVQLYNVVLQPHQNFLLFGADVVYK", "modifications": "labelled with NT647 (NHS labelling kit) in the MST experiments only; left off: HA signal peptide, N-terminal, state not stated | FLAG, C-terminal, state not stated", "notes": "recombinant human BPI (aa 32-487) with C-terminal FLAG Tag expressed in HEK293T cells"}}, "key": {"PBMCs": {"test_system": "PBMCs", "assay": "Stimulation of human PBMCs, cytokine ELISA of supernatants", "assay_type": "cell-based", "settings": "for TNFα secretion: 18 h", "experimental": "After informed consent, blood was drawn from healthy male volunteers using heparinized blood collection tubes (Li-Heparin-Gel-Monovette, Sarstedt, Nümbrecht, Germany) and diluted in RPMI 1640 (Biochrom, Berlin, Germany) at a ratio of 1:1.5. The blood was centrifuged in leucosep tubes containing Ficoll® Paque plus (Oxford Immunotec, Abingdon, Great Britian) at 1,000 × g for 10 min. The interphase containing the leukocytes was collected and subsequently washed twice with RPMI 1640. The pellet was resuspended in AIM V® Medium (Thermo Fisher Scientific, Waltham, MA, USA), counted and cultivated in 96-well plates for 4 h (1 × 10^5/100 μl). Then cells were stimulated with the indicated compounds in the presence or absence of BPI. The supernatants were collected after 18 h for determination of cytokine concentration by ELISA according to the manufacturer's instructions (OptEIA^TM Human TNFα ELISA Set and OptEIA^TM Human IL6 ELISA, BD Biosciences, Heidelberg, Germany; DuoSet® ELISA human CXCL8/IL-8, R&D, Minneapolis, MN, USA)."}, "[1]": {"test_system": "HEK293T cells expressing TLR2 and CD14", "assay": "Stimulation of HEK293T cells transfected with human TLR2 and CD14, IL-8 ELISA", "assay_type": "cell-based", "settings": "HEK293T expressing TLR2 and CD14, (R)-Pam3CSK4 ± BPI, 24 h", "experimental": "HEK293T cells were transfected using the calcium phosphate mediated method according to a published protocol ([45]). Transfections were performed using plasmid vectors for human TLR2 and human CD14 (both a kind gift of Carsten Kirschning, University of Duisburg-Essen, Germany) at concentrations of 0.4 and 0.05 μg/ml, respectively. A GFP encoding plasmid (0.4 μg/ml) was used as control. For stimulation, transfected HEK293T cells were cultured at 2 × 10^5 cells/ml in 96-well plates and stimulated with (R)-Pam3CSK4 ± BPI. After 24 h, supernatants were collected and analyzed for secretion of IL-8 by ELISA (DuoSet® ELISA human CXCL8/IL-8, R&D, Minneapolis, MN, USA)."}}, "data": [{"molecule": "B1", "values": [{"measurement": "TNFα secretion", "setting": "PBMCs; PBMCs stimulated with (R)-FSL-1, increasing rBPI concentration", "value": "gradually enhanced"}, {"measurement": "TNFα secretion", "setting": "PBMCs; PBMCs stimulated with (R)-Pam3CSK4, increasing rBPI concentration", "value": "gradually enhanced"}, {"measurement": "TNFα, IL-6, and IL-8 secretion", "setting": "PBMCs; PBMCs stimulated with lysate of S. pneumoniae D39Δcps, seven donors, BPI 500 nM", "value": "remarkable increase"}, {"measurement": "TNFα, IL-6, and IL-8 secretion", "setting": "PBMCs; PBMCs stimulated with lysates of S. aureus 113, BPI 500 nM", "value": "also increased"}, {"measurement": "secretion of TNFα", "setting": "PBMCs; PBMCs, BPI incubated with LTA SPΔlgt compared to LTA SPΔlgt alone", "value": "increased secretion of TNFα"}, {"measurement": "enhancement of immune stimulation of bLPs (IL-8)", "setting": "[1]", "value": "not sufficient to enhance"}]}]}
